T1: recombinant human IL1RAP protein, extracellular domain His-tagged (Sino Biological, Cat #10121-H08H) (human, UniProt Q9NPH3 21-367)
T1 construct: extracellular domain; Bought protein; The Octet analyte is printed as huIL1RAP-His (Sino Biological, lot MB08MA1301) without a catalogue number; also called huIL1RAP-His; hIL1RAP; not shown: His tag
T1 sequence (looked up): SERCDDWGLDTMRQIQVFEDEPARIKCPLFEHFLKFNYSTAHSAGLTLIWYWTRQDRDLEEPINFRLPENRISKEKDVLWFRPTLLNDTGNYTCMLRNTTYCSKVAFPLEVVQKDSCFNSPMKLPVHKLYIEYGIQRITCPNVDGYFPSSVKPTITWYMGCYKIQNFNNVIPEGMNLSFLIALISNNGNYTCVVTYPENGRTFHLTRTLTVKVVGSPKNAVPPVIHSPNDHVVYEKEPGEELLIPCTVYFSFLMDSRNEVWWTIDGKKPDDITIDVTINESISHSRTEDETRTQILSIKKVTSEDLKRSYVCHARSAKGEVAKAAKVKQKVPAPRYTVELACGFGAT

T2: IL1RAP on HEK-Blue IL1β / HEK-Blue IL33 reporter cells (UniProt Q9NPH3 21-570, limits assumed)
T2 sequence (looked up): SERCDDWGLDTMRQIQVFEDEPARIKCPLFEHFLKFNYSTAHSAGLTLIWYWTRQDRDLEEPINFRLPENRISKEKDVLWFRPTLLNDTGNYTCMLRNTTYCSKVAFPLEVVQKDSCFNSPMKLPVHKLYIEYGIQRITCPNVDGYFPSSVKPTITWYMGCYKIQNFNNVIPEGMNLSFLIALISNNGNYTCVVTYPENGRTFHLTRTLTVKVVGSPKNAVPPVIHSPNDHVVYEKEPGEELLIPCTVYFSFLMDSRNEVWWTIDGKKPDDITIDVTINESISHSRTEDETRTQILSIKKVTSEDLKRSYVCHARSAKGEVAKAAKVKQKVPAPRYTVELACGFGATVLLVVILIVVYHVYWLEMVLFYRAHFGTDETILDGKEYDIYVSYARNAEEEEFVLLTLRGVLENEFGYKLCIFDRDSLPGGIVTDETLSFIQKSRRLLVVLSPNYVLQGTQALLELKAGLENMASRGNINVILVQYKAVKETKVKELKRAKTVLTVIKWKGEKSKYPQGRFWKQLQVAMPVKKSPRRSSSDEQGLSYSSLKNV

T3: cyIL1RAP-His (Lake Pharma) (cynomolgus monkey, UniProt A0A2K5X5J5 21-367)
T3 construct: Bought protein (Lake Pharma, lot 16205819371); also called cynomolgus IL1RAP; monkey IL1RAP; not shown: His tag
T3 sequence: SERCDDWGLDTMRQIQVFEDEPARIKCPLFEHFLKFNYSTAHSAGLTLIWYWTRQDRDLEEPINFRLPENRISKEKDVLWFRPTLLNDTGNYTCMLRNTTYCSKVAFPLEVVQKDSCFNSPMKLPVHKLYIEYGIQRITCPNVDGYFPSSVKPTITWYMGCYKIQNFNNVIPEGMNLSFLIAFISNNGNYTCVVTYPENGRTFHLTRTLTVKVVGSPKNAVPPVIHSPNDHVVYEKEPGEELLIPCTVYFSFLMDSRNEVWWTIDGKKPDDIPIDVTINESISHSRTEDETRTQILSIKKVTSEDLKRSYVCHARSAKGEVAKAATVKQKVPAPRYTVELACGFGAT

T4: recombinant mouse IL1RAP protein (Sino Biological, Cat #52657-M08H) (mouse, UniProt Q61730 21-359)
T4 construct: Bought protein
T4 sequence (looked up): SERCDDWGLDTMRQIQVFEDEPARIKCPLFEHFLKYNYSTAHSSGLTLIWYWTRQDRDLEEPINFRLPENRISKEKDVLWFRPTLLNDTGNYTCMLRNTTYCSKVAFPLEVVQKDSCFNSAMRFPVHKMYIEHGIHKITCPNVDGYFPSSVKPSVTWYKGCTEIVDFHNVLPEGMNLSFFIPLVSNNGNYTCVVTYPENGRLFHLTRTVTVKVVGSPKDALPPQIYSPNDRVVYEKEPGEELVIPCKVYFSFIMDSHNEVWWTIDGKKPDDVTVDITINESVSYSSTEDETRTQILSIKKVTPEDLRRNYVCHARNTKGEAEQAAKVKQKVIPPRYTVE


Legend:
[1] = molecular target: T1, recombinant human IL1RAP protein, …; assay: Octet BLI; mAb captured on anti-mouse IgG Fc sensor; huIL1RAP-His analyte
Method: (§1) Antibodies were diluted in kinetics buffer (0.1% BSA, 0.02% Tween-20 and 0.05% NaN₃ in PBS) and loaded onto 16 channel anti-mouse IgG Fc capture sensors (AMC, Cat #2001073; Sartorius, Göttingen, Germany). Human, huIL1RAP-His (Sino Biological, lot: MB08MA1301), and monkey, cyIL1RAP-His (Lake Pharma, NY, USA; lot:16205819371) proteins were titrated starting from the highest concentration of 100 nM and followed by 50 nM and 25 nM. Purified antibodies were loaded at 5 μg/ml in kinetics buffer. The experimental parameters selected to determine the kinetic constants were Baseline for 60 s, Loading of antibody to sensor for 180 s, Association of analyte to antibody for 120 s, Dissociation for 1200 s and Regeneration in 10 mM Glycine pH 1.7 for 4×30 s.
(§2) Regeneration cycle tracking was selected for 12 cycles. Binding to human and cynomolgus IL1RAP was measured and KD (M) kinetics were calculated. Also, the disassociation rate (Kdis) (1/s) and association rate (Kon) (1/Ms) kinetics were calculated (data not shown).

[2] = molecular target: T2, IL1RAP on HEK-Blue IL1β / HEK-Blue IL33 …; assay: cell-based or functional assay
[3] = molecular target: T2, IL1RAP on HEK-Blue IL1β / HEK-Blue IL33 …; assay: cell-based or functional assay; remark: listed apart in the source
[4] = molecular target: T3, cyIL1RAP-His (Lake Pharma); assay: Octet BLI; mAb captured on anti-mouse IgG Fc sensor; cyIL1RAP-His analyte
Method: as §1, §2

[5] = molecular target: T4, recombinant mouse IL1RAP protein (Sino …); assay: cell-free ELISA, mouse IL1RAP coated; data not shown
Method: Recombinant human or mouse IL1RAP proteins (Sino Biological, Beijing, China; Cat #10121-H08H and Sino Biological, Cat #52657-M08H respectively) were diluted in PBS, pH 7.4 at concentration of 1 μg/ml, coated on high-binding 384-well clear plates and incubated overnight at 4° C. Following, plates were washed 3× with 0.05% Tween-20 in PBS, pH 7.5 and then blocked with 1% BSA in PBS for 1 hour at room temperature. After 3× washes, wells were incubated with each antibody at the highest concentration of 100 nM followed by seven serial half log dilutions (in 1% BSA and 0.05% Tween-20 in PBS) for 1 hour at room temperature. Plates were then washed 3× and incubated with […] detection antibody (Medna, TX, USA; Cat #D8212, 0.5 μg/ml diluted in 0.02% Tween-20 in PBS). After 5× washes, Supersignal ELISA Pico substrate (Thermofisher, MA, USA; Cat #37069) was applied to wells and chemiluminescent signal was read on Sprectramax L for 200 ms/well. Similarly, detection with specific κ and λ antibodies was conducted to define light chain isotyping.

Kd [1] [nM]	Response [1]	koff [1] [s⁻¹]	kon [1] [M⁻¹ s⁻¹]	IC50, HEK-BlueIL33 NFκB Reporter Assay [2]	Max % Inhibition at 200 nM, HEK-BlueIL33 NFκB Reporter Assay [2] [%]	IC50, HEK-BlueIL1β NFκB Reporter Assay [3]	Max % Inhibition at 200 nM, HEK-BlueIL1β NFκB Reporter Assay [3] [%]	Kd [4] [nM]	Response [4]	koff [4] [s⁻¹]	kon [4] [M⁻¹ s⁻¹]	binding result [5]	Binder
1.64	0.205	0.000272	166000	1.1e-08 M (implied; unit not printed)	74	2e-09 M (implied; unit not printed)	99	2.87	0.219	0.000408	142000	no binding (tested: 100 nM)	STLX2009 (antibody, V domains shown, Purified from hybridoma of immunized Alivamab mice; intact IgG; captured on anti-mouse IgG Fc sensors in Octet; kappa light chain; also called 74804_09H05A) VH: QVQLFQSGAEVKKPGASVKVSCKASGYTFTGYYVHWVRQAPGQGLEWMGWINPNSGGTDYAQKFQGRVTMTWDTSISTAYMELSRLRSDDTAVYYCARSYYYYGMDVWGQGTTVTVSS VL: not shown
1.62	0.17	0.00037	228000	4.81e-09 M (implied; unit not printed)	93	1.73e-09 M (implied; unit not printed)	99	4.32	0.168	0.000954	221000	no binding (tested: 100 nM)	STLX2018 (antibody, V domains shown, Purified from hybridoma of immunized Alivamab mice; intact IgG; captured on anti-mouse IgG Fc sensors in Octet; kappa light chain; also called 74804_18L05A) VH: QVQLVQSGAEVKKPGASVKVSCKTSGYTFTSCCMHWVRQAPGQGLEWMGIINPSVGSTSYAQKFQGIVTMTRDTSTSTVYMELSSLRSEDTAVYYCAVDSSGSRYYYGMDVWGQGTTVTVSS VL: EIVMTQSPATLSVSPGERATLSCRASQSVRSNLAWYQQRPGQAPRLLIYGTSTRATGIPARFSGSGSGTEFTLTISSLQSEDFAVYYCQQYNYWPYTFGQGTKLEIK

— patent publication US20240392013A1 (STELEXIS THERAPEUTICS, published 2024)
